Experimental data as given in article PMC12678787, “Insects evolved a monomeric histone-fold domain in the CENP-T protein family”.
Changes are numbered by the printed parent chain.

Key:
[1] = molecular target: T1, bmCENP-T patch 2 mutant (Bombyx mori, UniProt A0A8R2HRP3 894-1016, R928S;R963S); assay: EMSA; 100 mM NaCl; no effect of mutation; EMSA: 100 mM NaCl, 4 °C 30 min, 300 ng DNA, 8% glycerol, 5% native PAGE, GelRed stain; protein stock in 10 mM HEPES pH 7.5, 500 mM NaCl; binding buffer and pH not stated; conditions: protein: recombinant; tags: GST tag cleaved with HRV 3C; blunt
T1 sequence: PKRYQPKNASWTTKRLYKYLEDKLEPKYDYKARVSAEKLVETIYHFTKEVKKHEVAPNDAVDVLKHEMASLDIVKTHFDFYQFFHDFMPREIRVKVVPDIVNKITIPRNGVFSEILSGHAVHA

[2] = molecular target: T2, bmCENP-T HFD WT (Bombyx mori, UniProt A0A8R2HRP3 894-1016); assay: EMSA; 100 mM NaCl; maximum complex at 5x molar excess of protein; EMSA: 100 mM NaCl, 4 °C 30 min, 300 ng DNA, 8% glycerol, 5% native PAGE, GelRed stain; protein stock in 10 mM HEPES pH 7.5, 500 mM NaCl; binding buffer and pH not stated; conditions: protein: recombinant; tags: GST tag cleaved with HRV 3C (vector-derived N-terminal residues may remain); blunt
T2 sequence: T1 sequence with S35R, S70R

[3] = molecular target: T3, bmCENP-T patch 1 mutant (Bombyx mori, UniProt A0A8R2HRP3 894-1016, K895A;R896A;K907A;R908S;K911A); assay: EMSA; 100 mM NaCl; EMSA: 100 mM NaCl, 4 °C 30 min, 300 ng DNA, 8% glycerol, 5% native PAGE, GelRed stain; protein stock in 10 mM HEPES pH 7.5, 500 mM NaCl; binding buffer and pH not stated; conditions: protein: recombinant; tags: GST tag cleaved with HRV 3C; blunt
T3 sequence: T1 sequence with K2A, R3A, K14A, R15S, K18A, S35R, S70R

B1: 12 bp DNA (AA357/AA358) (dsDNA)
DNA 1: TAGACAGCTCTA
DNA 2: TAGAGCTGTCTA
[1]
  binding result: binds
[2]
  binding result: binds
[3]
  binding result: no binding
